B1: GFP-WT-HOOK3 [human] / GM130 (endogenous) [human (endogenous in HeLa)] (parent)
chain 1: MFSVESLERAELCESLLTWIQTFNVDAPCQTVEDLTNGVVMAQVLQKIDPAYFDENWLNRIKTEVGDNWRLKISNLKKILKGILDYNHEILGQQINDFTLPDVNLIGEHSDAAELGRMLQLILGCAVNCEQKQEYIQAIMMMEESVQHVVMTAIQELMSKESPVSAGNDAYVDLDRQLKKTTEELNEALSAKEEIAQRCHELDMQVAALQEEKSSLLAENQVLMERLNQSDSIEDPNSPAGRRHLQLQTQLEQLQEETFRLEAAKDDYRIRCEELEKEISELRQQNDELTTLADEAQSLKDEIDVLRHSSDKVSKLEGQVESYKKKLEDLGDLRRQVKLLEEKNTMYMQNTVSLEEELRKANAARSQLETYKRQVVELQNRLSEESKKADKLDFEYKRLKEKVDSLQKEKDRLRTERDSLKETIEELRCVQAQEGQLTTQGLMPLGSQESSDSLAAEIVTPEIREKLIRLQHENKMLKLNQEGSDNEKIALLQSLLDDANLRKNELETENRLVNQRLLEVQSQVEELQKSLQDQGSKAEDSVLLKKKLEEHLEKLHEANNELQKKRAIIEDLEPRFNNSSLKIEELQEALRKKEEEMKQMEERYKKYLEKAKSVIRTLDPKQNQGAAPEIQALKNQLQERDRLFHSLEKEYEKTKSQREMEEKYIVSAWYNMGMTLHKKAAEDRLASTGSGQSFLARQRQATSSRRSYPGHVQPATAR
chain 2: MWPQPRLPPRPAMSEETRQSKLAAAKKKLREYQQRNSPGVPTGAKKKKKIKNGSNPETTTSGGCHSPEDTPKDNAATLQPSDDTVLPGGVPSPGASLTSMAASQNHDADNVPNLMDETKTFSSTESLRQLSQQLNGLVCESATCVNGEGPASSANLKDLESRYQQLAVALDSSYVTNKQLNITIEKLKQQNQEITDQLEEEKKECHQKQGALREQLQVHIQTIGILVSEKAELQTALAHTQHAARQKEGESEDLASRLQYSRRRVGELERALSAVSTQQKKADRYNKELTKERDALRLELYKNTQSNEDLKQEKSELEEKLRVLVTEKAGMQLNLEELQKKLEMTELLLQQFSSRCEAPDANQQLQQAMEERAQLEAHLGQVMESVRQLQMERDKYAENLKGESAMWRQRMQQMSEQVHTLREEKECSMSRVQELETSLAELRNQMAEPPPPEPPAGPSEVEQQLQAEAEHLRKELEGLAGQLQAQVQDNEGLSRLNREQEERLLELERAAELWGEQAEARRQILETMQNDRTTISRALSQNRELKEQLAELQSGFVKLTNENMEITSALQSEQHVKRELGKKLGELQEKLSELKETVELKSQEAQSLQQQRDQYLGHLQQYVAAYQQLTSEKEVLHNQLLLQTQLVDQLQQQEAQGKAVAEMARQELQETQERLEAATQQNQQLRAQLSLMAHPGEGDGLDREEEEDEEEEEEEAVAVPQPMPSIPEDLESREAMVAFFNSAVASAEEEQARLRGQLKEQRVRCRRLAHLLASAQKEPEAAAPAPGTGGDSVCGETHRALQGAMEKLQSRFMELMQEKADLKERVEELEHRCIQLSGETDTIGEYIALYQSQRAVLKERHREKEEYISRLAQDKEEMKVKLLELQELVLRLVGDRNEWHGRFLAAAQNPADEPTSGAPAPQELGAANQQGDLCEVSLAGSVEPAQGEAREGSPRDNPTAQQIMQLLREMQNPRERPGLGSNPCIPFFYRADENDEVKITVI

Variants of: B1
Assay: coIP (co-immunoprecipitation, blot band intensity quantified)
Conditions: with GM130 (endogenous) [human (endogenous in HeLa)]; HeLa cells, 100 ng/mL nocodazole for 16 hr (+); read off a plot

Variant | response
chain 1 S238A | 16 A.U
chain 1 S238A S707A | 5.5 A.U
chain 1 S238E | 12 A.U
chain 1 S238E S707E | 6.5 A.U
chain 1 S707A | 16 A.U
chain 1 S707E | 11 A.U
